Experimental data taken from paper PMC6547439.
Where two headings read alike, the source gives them in different places.

B1: miR-122 guide / HCV S2p3,4 1-42 target (mixed)
RNA 1: UGGAGUGUGACAAUGGUGUUUGU
RNA 2: ACCUGCCCCUAAUAGGGGCGACACUCCGCCAUGAAUCACAGC
modifications: 5'-phosphate on miR-122 guide
B2: miR-122 guide / HCV 1-42 WT target (mixed)
RNA 1: UGGAGUGUGACAAUGGUGUUUGU
RNA 2: ACCUGCCCCUAAUAGGGGCGACACUCCGCCAUGAAUCACUCC
modifications: 5'-phosphate on miR-122 guide

Assays:
[1] = biological target: T1, human Argonaute-2 loaded with miR-122 (hAgo2:miR-122) (Homo sapiens, UniProt Q9UKV8 1-859); assay: EMSA
[2] = biological target: T1, human Argonaute-2 loaded with miR-122 …; assay: EMSA; remark: listed apart in the source

T1 sequence (Q9UKV8 whole entry): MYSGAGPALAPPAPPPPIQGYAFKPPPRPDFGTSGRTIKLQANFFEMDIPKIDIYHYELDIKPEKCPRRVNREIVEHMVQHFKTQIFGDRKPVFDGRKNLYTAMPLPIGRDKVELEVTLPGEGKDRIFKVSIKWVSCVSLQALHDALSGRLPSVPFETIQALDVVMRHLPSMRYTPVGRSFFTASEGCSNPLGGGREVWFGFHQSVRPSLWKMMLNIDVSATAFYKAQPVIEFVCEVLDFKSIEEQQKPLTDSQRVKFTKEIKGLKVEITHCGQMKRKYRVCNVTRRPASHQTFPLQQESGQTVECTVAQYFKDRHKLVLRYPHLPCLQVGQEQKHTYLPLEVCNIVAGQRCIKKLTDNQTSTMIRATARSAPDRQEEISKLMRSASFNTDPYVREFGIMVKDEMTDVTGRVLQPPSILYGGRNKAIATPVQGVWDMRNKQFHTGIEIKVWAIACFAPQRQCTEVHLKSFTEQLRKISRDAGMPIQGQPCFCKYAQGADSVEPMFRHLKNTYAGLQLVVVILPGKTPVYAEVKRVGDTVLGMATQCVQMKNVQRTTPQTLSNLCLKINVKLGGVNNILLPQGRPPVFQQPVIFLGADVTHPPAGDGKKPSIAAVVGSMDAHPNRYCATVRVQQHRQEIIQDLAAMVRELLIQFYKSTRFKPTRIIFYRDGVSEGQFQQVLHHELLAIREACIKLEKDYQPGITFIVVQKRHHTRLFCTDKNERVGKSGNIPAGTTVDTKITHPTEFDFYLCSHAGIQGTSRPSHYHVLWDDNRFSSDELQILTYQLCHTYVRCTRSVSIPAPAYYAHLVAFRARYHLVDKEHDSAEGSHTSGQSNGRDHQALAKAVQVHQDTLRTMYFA

Binder	Kd [1]	Kd [2]
B1	0.063 ± 0.01 nM	–
B2	–	0.25 ± 0.031 nM
